Experimental findings from publication PMC11480844 (2024) are described below.

The chains are these.
B1: H2-Kb / Ed5 (parent complex)
chain 1: GDSVTQTEGPVTVSESESLIINCTYSATSIAYPNLFWYVRYPGEGLQLLLKVITAGQKGSSRGFEATYNKETTSFHLQKASVQESDSAVYYCALGSYNQGKLIFGQGTKLSIKP
chain 2: DTTVKQNPRYKLARVGKPVNLICSQTMNHDTMYWYQKKPNQAPKLLLFYYDKILNREADTFEKFQSSRPNNSFCSLYIGSAGLEYSAMYLCASSRRLGASQNTLYFGAGTRLSVL
chain 3: not shown
chain 4: IQKTPQIQVYSRHPPENGKPNILNCYVTQFHPPHIEIQMLKNGKKIPKVEMSDMSFSKDWSFYILAHTEFTPTETDTYACRVKHDSMAEPKTVYWDRDM
chain 5: SIINFEKL
B2: H2-Kb / Ed45 (parent complex)
chain 1: GEQVEQRPPHLSVREGDSAVIICTYTDPNSYYFFWYKQEPGAGLQLLMKVFSSTEINEGQGFTVLLNKKDKQLSLNLTAAHPGDSAVYFCAVSGTNAYKVIFGKGTHLHVLP
chain 2: EAAVTQSPRSKVAVTGGKVTLSCHQTNNHDYMYWYRQDTGHGLRLIHYSYVADSTEKGDIPDGYKASRPSQENFSLILELASLSQTAVYFCASARGFQDTQYFGPGTRLLVL
chain 3: not shown
chain 4: B1 chain 4
chain 5: SIINFEKL
Note: test concentration or dose not given here.

The first assay covers variants of B1. The experiment in a line: % of reporter cells activated (NFAT-GFP), raw.
For the variant chain 5 S1Q, the ratio to parent stood at 0.556.

chain 5 S1F: the ratio to parent was found to be 0.0691.

chain 5 S1R: the ratio to parent was 0.293.

Regarding chain 5 S1K, the ratio to parent turned out to be 0.685.

Consider chain 5 S1L, for which the ratio to parent was 0.0134.

As to chain 5 S1M, the ratio to parent came out at 0.02.

In the case of chain 5 S1T, the ratio to parent is 0.944.

Consider chain 5 S1N, for which the ratio to parent stood at 0.305.

Turning to chain 5 S1W, the ratio to parent is 0.374.

For chain 5 S1P, the ratio to parent amounted to 0.0946.

As for chain 5 S1E, the ratio to parent was found to be 0.981.

Take chain 5 S1D: the ratio to parent stood at 0.629.

As to chain 5 S1V, the ratio to parent was 0.126.

As for chain 5 S1H, the ratio to parent was 0.559.

On to chain 5 S1G, for which the ratio to parent was 0.491.

With chain 5 S1C, the ratio to parent came out at 0.161.

In the case of chain 5 S1Y, the ratio to parent is 0.689.

With chain 5 S1I, the ratio to parent was 0.00825.

In the case of chain 5 L8W, the ratio to parent was 0.585.

For the variant chain 5 L8S, the ratio to parent is 0.641.

Regarding chain 5 L8R, the ratio to parent was 0.904.

For chain 5 L8Q, the ratio to parent came to 0.783.

In the case of chain 5 L8G, the ratio to parent came to 0.901.

For chain 5 L8C, the ratio to parent worked out at 0.929.

On to chain 5 L8Y, for which the ratio to parent is 0.848.

For chain 5 L8T, the ratio to parent was found to be 0.671.

In the case of chain 5 L8A, the ratio to parent was 0.711.

Consider chain 5 L8E, for which the ratio to parent came to 0.629.

Turning to chain 5 L8K, the ratio to parent was determined as 0.793.

For chain 5 L8H, the ratio to parent came to 0.958.

Take chain 5 L8N: the ratio to parent was determined as 0.753.

For chain 5 L8V, the ratio to parent is 0.546.

Take chain 5 L8P: the ratio to parent is 0.826.

For the variant chain 5 L8I, the ratio to parent stood at 0.758.

For chain 5 L8D, the ratio to parent was found to be 0.747.

As for chain 5 L8M, the ratio to parent came out at 0.752.

On to chain 5 F5M, for which the ratio to parent amounted to 0.938.

As for chain 5 F5V, the ratio to parent turned out to be 0.777.

For the variant chain 5 F5N, the ratio to parent was determined as 0.855.

chain 5 F5Q: the ratio to parent was determined as 0.951.

For chain 5 F5T, the ratio to parent is 0.887.

On to chain 5 F5S, for which the ratio to parent came to 0.735.

In the case of chain 5 F5G, the ratio to parent worked out at 0.698.

Turning to chain 5 F5I, the ratio to parent was found to be 0.886.

chain 5 F5C: the ratio to parent was 1.04.

Regarding chain 5 F5W, the ratio to parent amounted to 0.695.

Turning to chain 5 F5K, the ratio to parent came to 0.905.

As for chain 5 F5P, the ratio to parent is 0.98.

Consider chain 5 F5L, for which the ratio to parent came out at 0.996.

As to chain 5 F5E, the ratio to parent was determined as 0.848.

For chain 5 F5R, the ratio to parent turned out to be 0.764.

As for chain 5 F5H, the ratio to parent stood at 0.822.

Turning to chain 5 F5Y, the ratio to parent was found to be 0.892.

Regarding chain 5 F5A, the ratio to parent amounted to 1.01.

chain 5 K7Y: the ratio to parent came to 0.717.

For chain 5 K7R, the ratio to parent was 0.853.

For chain 5 K7L, the ratio to parent was 0.728.

Consider chain 5 K7F, for which the ratio to parent came to 0.657.

In the case of chain 5 K7I, the ratio to parent came out at 0.65.

chain 5 K7G: the ratio to parent was 0.658.

In the case of chain 5 K7N, the ratio to parent turned out to be 0.714.

For the variant chain 5 K7D, the ratio to parent was determined as 0.593.

On to chain 5 K7A, for which the ratio to parent came out at 0.645.

Consider chain 5 K7S, for which the ratio to parent was determined as 0.605.

As to chain 5 K7C, the ratio to parent amounted to 0.686.

As to chain 5 K7V, the ratio to parent was 0.62.

Take chain 5 K7P: the ratio to parent was found to be 0.728.

For chain 5 K7T, the ratio to parent stood at 0.602.

Turning to chain 5 K7H, the ratio to parent worked out at 0.798.

As to chain 5 K7M, the ratio to parent was found to be 0.725.

For chain 5 K7E, the ratio to parent is 0.632.

On to chain 5 N4K, for which the ratio to parent is 0.0781.

Turning to chain 5 N4W, the ratio to parent turned out to be 0.0358.

As for chain 5 N4A, the ratio to parent turned out to be 0.002.

On to chain 5 N4T, for which the ratio to parent is 0.04.

As to chain 5 N4D, the ratio to parent was determined as 0.756.

As to chain 5 N4L, the ratio to parent was found to be 0.182.

chain 5 N4Q: the ratio to parent came to 0.00458.

Take chain 5 N4G: the ratio to parent came to 0.00398.

Take chain 5 N4C: the ratio to parent was 0.164.

For the variant chain 5 N4P, the ratio to parent is 0.00308.

For the variant chain 5 N4M, the ratio to parent amounted to 0.00113.

Turning to chain 5 N4I, the ratio to parent came out at 0.274.

As to chain 5 N4R, the ratio to parent came to 0.374.

In the case of chain 5 N4H, the ratio to parent came to 0.11.

Consider chain 5 N4S, for which the ratio to parent came out at 0.0018.

Take chain 5 N4F: the ratio to parent stood at 0.0112.

Turning to chain 5 N4E, the ratio to parent was 0.00233.

As to chain 5 N4Y, the ratio to parent came to 0.0536.

For chain 5 I3M, the ratio to parent was 0.723.

Regarding chain 5 I3T, the ratio to parent stood at 0.512.

chain 5 I3R: the ratio to parent amounted to 0.064.

With chain 5 I3Y, the ratio to parent is 0.0245.

As to chain 5 I3F, the ratio to parent stood at 0.0887.

For the variant chain 5 I3C, the ratio to parent was determined as 0.673.

Turning to chain 5 I3D, the ratio to parent is 0.436.

For chain 5 I3E, the ratio to parent worked out at 0.287.

Turning to chain 5 I3L, the ratio to parent was found to be 0.897.

With chain 5 I3K, the ratio to parent stood at 0.682.

Consider chain 5 I3S, for which the ratio to parent stood at 0.329.

chain 5 I3H: the ratio to parent came out at 0.121.

For chain 5 I3A, the ratio to parent was determined as 0.32.

With chain 5 I3P, the ratio to parent was 0.36.

For the variant chain 5 I3G, the ratio to parent is 0.28.

Consider chain 5 I3N, for which the ratio to parent turned out to be 0.164.

chain 5 I3V: the ratio to parent worked out at 0.661.

Regarding chain 5 I3W, the ratio to parent worked out at 0.372.

Regarding chain 5 E6K, the ratio to parent is 0.901.

Regarding chain 5 E6P, the ratio to parent was 0.186.

Take chain 5 E6D: the ratio to parent is 0.941.

chain 5 E6S: the ratio to parent is 0.585.

For the variant chain 5 E6A, the ratio to parent worked out at 0.606.

Turning to chain 5 E6I, the ratio to parent was found to be 0.533.

For the variant chain 5 E6H, the ratio to parent was found to be 0.554.

As for chain 5 E6G, the ratio to parent is 0.939.

With chain 5 E6W, the ratio to parent amounted to 0.54.

As for chain 5 E6F, the ratio to parent came out at 0.506.

Take chain 5 E6C: the ratio to parent is 0.491.

Consider chain 5 E6N, for which the ratio to parent is 0.498.

On to chain 5 E6Q, for which the ratio to parent stood at 0.619.

For chain 5 E6V, the ratio to parent was 0.618.

On to chain 5 E6T, for which the ratio to parent stood at 0.622.

Consider chain 5 E6L, for which the ratio to parent worked out at 0.165.

Regarding chain 5 E6M, the ratio to parent was determined as 0.443.

Regarding chain 5 E6Y, the ratio to parent amounted to 0.633.

chain 5 E6R: the ratio to parent came to 0.0689.

In the case of chain 5 I2S, the ratio to parent was 0.989.

In the case of chain 5 I2D, the ratio to parent was 0.943.

Consider chain 5 I2C, for which the ratio to parent was found to be 0.958.

In the case of chain 5 I2Y, the ratio to parent worked out at 0.642.

For the variant chain 5 I2V, the ratio to parent was 1.01.

Regarding chain 5 I2G, the ratio to parent was found to be 0.875.

On to chain 5 I2W, for which the ratio to parent was 0.66.

Turning to chain 5 I2H, the ratio to parent was found to be 0.763.

As for chain 5 I2E, the ratio to parent came to 0.852.

In the case of chain 5 I2P, the ratio to parent turned out to be 1.04.

For the variant chain 5 I2T, the ratio to parent turned out to be 1.

Take chain 5 I2Q: the ratio to parent was determined as 0.711.

As to chain 5 I2N, the ratio to parent was 0.749.

Consider chain 5 I2L, for which the ratio to parent came to 0.974.

As for chain 5 I2K, the ratio to parent came to 0.798.

In the case of chain 5 I2R, the ratio to parent worked out at 0.641.

Regarding chain 5 I2A, the ratio to parent was 1.01.

With chain 5 I2F, the ratio to parent is 0.851.

Variants of B2 are the subject of a further assay. Kind of assay: % of reporter cells activated (NFAT-GFP), raw.
For chain 5 L8Q, the ratio to parent turned out to be 1.79.

Take chain 5 S1L: the ratio to parent worked out at 0.0583.

Regarding chain 5 E6T, the ratio to parent was 0.91.

In the case of chain 5 F5L, the ratio to parent was found to be 0.719.

Consider chain 5 K7S, for which the ratio to parent amounted to 1.34.

As to chain 5 N4I, the ratio to parent was 1.11.
